From PMC7955051

Columns and labels:
[1] = molecular target: RSV IN 1–278 (Rous sarcoma virus integrase, C-terminal truncation of 8 amino acids) (Rous sarcoma virus (Prague A)); assay: cryo-EM structure
[2] = molecular target: RSV IN 1–278 (Rous sarcoma virus integrase, C-terminal truncation of 8 amino acids) (Rous sarcoma virus (Prague A)); assay: SEC
[3] = molecular target: RSV IN S262R (recombinant) (Rous sarcoma virus (Prague A)); assay: not stated; CSC assembly with recombinant IN mutants (Supplementary Fig. 11)

Substance	stoichiometry N [1]	stoichiometry N [2]	stoichiometry N [3]
RSV IN 1–278 (Rous sarcoma virus integrase, C-terminal truncation of 8 amino acids) (domain or fragment)	8	8	
RSV IN S262R (recombinant) (enzyme)			8
